# In the nanobody polyreactivity screen of Harvey et al. (2022):
# Experiment: yeast display, Sf9 membrane polyspecificity reagent, FACS + sequencing; frameworks hold sequencing errors
# Method in brief: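 Nanobodies came from a synthetic yeast display library in Saccharomyces cerevisiae BJ5465, induced with galactose for 36–48 hours and stained for 1 hour at 4 °C with 10% biotinylated, detergent-solubilized Sf9 membrane reagent. Cells were enriched on streptavidin microbeads and then FACS-sorted, with low and high (top ~1%) gates set on anti-HA fluorescence for expression and streptavidin fluorescence for reagent binding. Each polyreactivity label reflects the gate a clone came from. Genes were amplified by colony PCR, sequenced by MiSeq 2 × 250 and filtered by CDR length.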
row,Sequence,polyreactivity (PSR sort gate)
1,QVQLVESGGGLVQAGGSLRLSCAASGFIFPGNARAWYRQAPGKERELVAAISNSGSRTYYADSVKGRFTISRDNAKNTVYLQMNSLKPEDTAVYYCNADVPNRGWPYDYWGQGTQVTVSS,low polyreactivity
2,QVQLVESGGRLVQAGGSHRLSCAASGFIFYDYAMGWYIQAPGKERELVAVITRGGSTYYADSVKGRFTISRDNAKNTVYLLMNSLKPEDTAVYYCAAYWFTPGFTFDYWGQGTQVTVSS,low polyreactivity
3,QVQLVESGGGLVQAGGSLRLSCAASGSNFKWYAMGWYRQAPGKERELVSAISKSGGSTYYADSVKGRFTISRDNAKNTVYLQMNSLKPEDTAVYYCNAVYIGSRRRYEYDYWGQGTQVTVSS,high polyreactivity
4,QVQLVESGGGLVQAGGSLRLSCAASGRIFAGYGMGWYRQAPGKERELVAAISSGGSTYYADSVKGRFTISRDNAKNTVYLQMTSLKPEDTAVYDCATDGQSVPDDYYQNVDYDYWGQGTQVAVSS,low polyreactivity
5,QVQLVESGGGLVQAGGSLRLSCAASGRTFWYYAMGWYRQAPGKERELVATISYRGGSTYYADSVKGRFTISRDNAKNTVYLQMNSLKPEDTAVYYCAAKQWWGGRPKVDYWGQGTQVTVSS,high polyreactivity
6,QVQLQDSGGRLVQAGGSLRLSCAASGYIFGSCSMGWFRQSPGKVRELVATINNGSSTYYADSVKGRITISRDNAKNSVYLQMNSLKPEDTAVYYCAVSLYRLTFFYYWGQGNQVTVSS,high polyreactivity
7,QVQLVESGGGLVQAGGSLRLTCAASGRTFWRYAMGWYRQAPGKERELVAAITSGGGSTYYADSVKGRFTISRDNAKNTVYLQMTSLKPEDTAVYYCNRAGRGRSFKGDYWGQGTQVTVSS,high polyreactivity
8,QVQLVESGGGLVQAGGSLRLSCAASGRIFVDYVMGWYRQAPGKERELVARITWIGGNTYYADSVKGRFTISRDNAKNTVYLQMKSLKPEETAVYYCNAGLTLLSRRHEGWYGYDYWGQGTQVTVSS,low polyreactivity
9,QVQLVESGGGLVQAGGSLRLSCAASGRTFLFYAMGWYRQAPGKERELVASITLNGGSTYYADSVKGRFTISRDNAKNTVYLQMNSLKPEETAVYYCNKRTRYQIGYGYWGQGTQVTVSS,low polyreactivity
10,QVQLVESGGGLVQAGGSLRLSCAASGNIFVEYAMGWYRQAPGKERELVAAITNSGGRTHYADSVKGRFTISRDNAKNTVYLQMNSLKPEDTAVYYCAAPTKYRSRRYYWGQGTQVTVSS,high polyreactivity
11,QVQLVESGGGLVQAGGSLRLSCAASGSIFGPYAMGWYRQAPGKERELVATITSGGRTYYADSVKGRFTISRDNAKNTVYFQLNSLKPEDTAVYYCAAAGKGRYHVRSTMDYWGQGTQVTVSS,high polyreactivity
12,QVQLVDSGGGLVQAGGSLRLSCAASVFTFYCNAMGWYRQAPGKERELVAAITSTGNTYYADSVKGRFTISRDNAKNTVYLQMNSLKPEDTAVYYCARRGDILYDYWGQGTQVTVSS,low polyreactivity
13,QVQLVESGGGLVQAGGSLRLSCAASGSTFYINALGWYRQAPGKESELVAAITWNSDSTYYADSVKVRFTISRDNSKNTVYLQMNSLKPEDTAVYYCNHDRIIWGRLYEEGDYWGQGTQVTVSS,low polyreactivity
14,QVQLVESGGGLVQAGGSLRLSCAASGSTFGYNAMGWYRQAPGKERELVAAISRSGGRTYYADSVKGRFTISRDNAKNTVYLQMNSLKPEDTAVYYCATYYTNKVPARYYWGQGTQVTVSS,high polyreactivity
15,QVQLEESGGGLVQAGGTLRLSCAASGSIFRNYAMGWYRQAPGKEWQLVAAISRSGTSTYYADSVKGRFTISRDNAKNTVYFQMNSLKPEDYAVYYCNARTYVAVGFNYWGQGTQVTVSS,high polyreactivity
16,QVQLVESGGGLVQAGGSLRLSCAASGRIFPYYVMGWYRQAPGKERELVAAISRSGSSTYYADSVKGRFTISRDNAKNTVSLQMNSLKPEDTAVYSCAADYNWSPYYTRGDYWGQGTQVTVSS,high polyreactivity
17,QVQLVESGGGLVQAGGSLRLSCAASGSIFPGYAMGWYRQAPGNERELVAAISSGGNTHYADSVKGRFTISRDNAKNTVYLQMNSLKPEDTAVYYCAASYDYTYYWGQGTQVTVSS,low polyreactivity
18,QVQLVDSGGGLVQAGGSLRLSCAASGFIFKYYAMGWYRQEPGKERELVAAITIGGSTNYADSVKGRFTISRDNAKNTVYLQMNSLTPEDTAVYSCAADVQERYHRAWYDYWGQGTQVTVSS,low polyreactivity
19,QVQLVESGGGLVQAGGSLRLSCAASGFTFNYYVMGWYRQAPGKEREMVSAISRGGGSTYYADSVKGRFTISRDNAKNTVYLQMNSLKPEDTEVYYCAARPYSYLFFYWGQGTQVTVSS,high polyreactivity
20,QVQLVESGGGLVQAGGSLRLSCAASGSTFSWYAMGWYRPAPGKEMELVAAISSGGSTNYADSVKGRFTISRDNAKNTVYLQMNSLKPEDTAVFYCAAVWSRFLISYSTGWWFEYWGQGTQVTVSS,low polyreactivity
21,QVQLVESGGGLVQAGGSLRLSCAASGSTIVLNDKRCYRQAPGKERELVAAITWSGGSTYYADSVKGRFTISRDNAKNTVYLQMNSLKPEDTAVYYCNVDYYGWPYWYEYDYWGQGTQVTVSS,high polyreactivity
22,QVQLVESGGGLVQAGGSLRLSCAASGITFRSYAMGWYRQAPGKERELVAAISSTGRTYYADSVKGRFTISRDNAKNTVYLQMNSLKPEDTAGYYCNAKRYIWGQGTQVTVSS,high polyreactivity

row,Sequence,polyreactivity (PSR sort gate)
1,QVQLVESGGALVQAGGSLRLSCAASGFIICYYAMGSYRQAPGKDRELVAAITSGTSTSYADSVKGRFTISRDNAKNTVYLQMNSLKQEDTAVYYCGADVVRSNFYGTFLYDYDYWGQGTQVTVSS,low polyreactivity
2,QVQLVESGGGLVQAGGSLLLSCAASGSIFGWYVMGWYRQEPGKERELVAAISSVGSTYYADSVKGRFTISRDNAKNTVYLQMNSLKPEDTAVYYCATDSNPKWDYALDSWGQGTQVTVSS,low polyreactivity
3,QVQLVESGGGLVQAGGSLRLSCAASGLTFIYYAMGWYRQAPGKERELVAAISTSGASTYYADSVKGRFTISRDNAKNTVYLQMNSLKPEDTAVYYCNAEYFGEYRDYGYWGQGTQVTVSS,low polyreactivity
4,QVQLVESGGGLVQAGGSLRLSCAASGITFDNNAMGWYRQAPGKEREFVADIDGSGGSTYYADSVKGRFTISRDNAKNTVYLLMNCLKPEDTAVYYCAVVVYYYTYHYWGQGTQVTVSS,low polyreactivity
5,QVQLVESGGGLVHAGGCLRLSFAASGFIFVVNPMGWYRPAPGKERELVAAINTSRGSTSYADSVKGRFTISRDNAKNTVYLQMNSVKPEDNAVYYCARDVWEKYRQSWGYVPLQGYDYCGQGTQVTVSS,low polyreactivity
6,QVQLVESGGGLVQAGGSLRLSCAASGSIFSGNAMGWYRQAPGKERELVAAISSNGGRTYYADSVKGRFTISRDNAKNTVYLQMNSLKPEDTAVYYCAADSGKRRYGYYYWGQGTQVTVSS,high polyreactivity
7,QMQLQESGGGLVQAGGSLRLSCAPSGTIIRVRYMGWHRQAPGKDRELVAGINGGTTTYNSDSVIGRFTISRDNANNTVFLQMNSLKPDDTAVYKCAAGASRLTYYDYWGQGTQVTVSS,low polyreactivity
8,QVQLVESGRGLFQAGGSLRLSCAASGRIFRYYAMGWSRQATGKERELVAAISGSGGSTYYAASVKGRFTISGDNAKNTVYLLMNSLKPEDNAVYYCNALYRIASGEGDLWGQGTQVTVSS,low polyreactivity
9,QVQLVESGGGIVQAGGSLRLSCAASGRTFWGYAMGWYRQAPGKERELVASISGRGGSTYYADSVKERFTISRDTAKNTVYLQINSLQPEDTAVYYCAATYFSVKWYYYWGEGTQVTVSS,high polyreactivity
10,QVQLVESGGGLVQAGGSLRLSFAASGSTIGDNAMGWYRQAPGKERELVAVITSDTSTYYADSVKGRFTISRDNAMNTVYLQMNSLKPEDTAVYYCAADWGGLWFWYEYWGQGTQVTVSS,low polyreactivity
11,QVHLVESGGGLVQAGGSLRLSCAASGFIFSWYDMGWYRQAPGKERELVAAINWSGGSTYYADSVKGRFTISRDNAKNTVYLQIISLKPEDTAVYYCAAVRQSQFEYWGQGTQVTVSS,high polyreactivity
12,QVQLLESGGGLVQAGGSLRLSCAASGFTITRYAMGWYRQAPGKERELVAAITYRGGSTYYADSVKGRFTISRDNAKITVYLQMNSLKPEDTAVYYCAADALYYFSWYYYWGQGTQVTVSS,high polyreactivity
13,QVQLVESGGGLVQAGGSLRLSCAASGRTSARYGMGWYRQAPGKERELVASIRRSGDSTYYADSVKGRFTISRDNAKNTVYLQLNSLKPEDTAVYYCAAGGKQGKRDYWGQGTQVTVSS,low polyreactivity
14,QVQLVESGGGLVQAGGSLRLSCAASGLTFEYNAMGWYRQAPGKERELVAAITSGVNTYYADSVKGRFTISRDNAKNTVYLQMNSLKPEDTAVYYCAKYRWNWRYVSRGDSWGQGTQVTVSS,high polyreactivity
15,QVQLVESGGGLVQAGGSLRLSCAACGSIFEAYAMGWYRKAPGKERELVAVINYSGGSTYYADSVKGRFTISRDNAKNTVYLQMNSLKPEDTAVYYCAADTVRPWYAYKAHDYWGLGTQVTVSS,low polyreactivity
16,QVQLVESGGGLVQAGGSLRLSCAASGITFQRYVLGWYRQAPGKERELVAAISFTASSTYYADSVKGRFTISRDYAKKTVYLQMNSLKPEDTAVYYCAADGSVPKYVPYPRYYGYGYWGQGTQVTVSS,high polyreactivity
17,QVQLVESGGGLVQAGGSLRLTCAASGRIFAPKAMGWYRQAPGKERELVAGISSGGSTNYADSVKGRFTISRDNAKNTVYLQMNSLTPEDSAVYYCATGSYSYHRGYVTYARYGYWGQGTLVTVSS,low polyreactivity
18,QVQLEESGGGLVQAGGSLRLTCAATGRIYFYGMGRYRQAPGNERELVATITSVSNTYYADSVKGRFTKSRDNAKNTVYLVMNSLKPEETAVYYCAAVTRGNWVYYWGQRTQVTVSS,high polyreactivity
19,QVQLVESGGGLVQAGGSLRLSCAASGSIFEYNGMGWYRQAPGKERELVAAITTTGTTDYADSVKGRFTISRDNAKNTVYLQMNSLKPEDTAVYYCAADYTYYYKGEYDYWGQGTQVTVSS,low polyreactivity
20,QVQLVESGRGLFQAGRSLRISCAASGSIFSYNTMGWYREAPGKERELVASISSGGRTYYADSVKGRFTISRDNAKNTVYLQMNSLKPVDTAVYDCARVPYAYLPYKPFQQYSYDYWGQGTQVTVSS,high polyreactivity
21,QVQILESGGGLVQAGGSLRVSCAASGSTFSYYAMGWYRQAPGKERELVAAIRSSGGSTYYADSVKGRFTISRDNAKNTVYLQMNSLKPEDTAVYYCAARRSVGYRRYDYWGQGTQVTVSS,high polyreactivity
